Reference: US20040229274A1 (Johns Hopkins, published 2004)

How the values were obtained:
[1] = target: mGluR2 transiently expressed in HEK-293 cells (UniProt P31421 19-872); test: bead-linked GST-Homer pull-down from extracts of transfected HEK-293 cells, immunoblot
Description: (§1) To measure the binding interaction, mGluR5 and mGluR1a were expressed in HEK-293 cells. Cell extracts were mixed with bead-linked GST-Homer and were then eluted with SDS loading buffer. When the C-terminal 4 amino acids of mGluR5 were deleted, binding of the mGluR5 to Homer was reduced by greater than 70% (FIG. 10D, lanes 3 and 4). […] Neither mGluR2 nor mGluR4 bind Homer protein (FIGS. 10B, 10C).
(§2) For experiments examining specificity of Homer binding to metabotropic glutamate receptors, HEK-293 cells were transiently transfected with mGluR1a, mGluR2, mGluR4 or mGluR5 expression constructs, scraped into PBS+1% Triton X100, sonicated 2×10 seconds, centrifuged at 15,000 g for 10 minutes at 4° C., and pre-cleared. Lysate from half of a 10 cm plate was incubated with 50 μl of beads linked to 250 ng of protein and washed as above. Samples were analyzed by western blot analysis using the appropriate polyclonal mGluR antibody. Deletion constructs of Homer were prepared by PCR and cloned as fusion constructs with GST in pGEX (Pharmacia, Piscataway, N.J.).

[2] = target: mGluR4 transiently expressed in HEK-293 cells (UniProt P31423 33-912); test: as above
Description: as §1, §2

[3] = target: truncated mGluR5 (C-terminal 4 amino acids deleted) expressed in HEK-293 cells (UniProt P31424); test: bead-linked GST-Homer pull-down from HEK-293 cell extracts, immunoblot
[4] = target: T1, C-terminal 195 amino acids of mGluR5 encoded by an interacting cDNA of the rat hippocampus library in pPC86 (rat, UniProt P31424 1009-1203); test: yeast GAL4 two-hybrid screen, selection without leucine, tryptophan and histidine, confirmed by β-galactosidase assay
T1 construct: not shown: GAL4 domain supplied by vector pPC86
Method: In experiments carried out in support of the present invention and described in Example 5 herein, the yeast GAL4 two-hybrid system was used to identify binding partners of the rat Homer protein in a rat brain cDNA library (Chevray and Nathans, 1992). A PCR product of the full-length Homer ORF with flanking SmaI sites was subcloned into the yeast expression vector pPC97. A random primed cDNA library was prepared from seizure stimulated adult rat hippocampus and cloned into the yeast expression vector pPC86. The library contains 2×10⁶ independent cDNAs. A total of 1.5×10⁶ clones were screened. Interacting proteins were identified by selection on plates lacking leucine, tryptophan, and histidine, restreaked and confirmed using a β-galactosidase assay.
The full-length Homer ORF with flanking SmaI sites was subdloned into the yeast expression vector pPC97. A random primed cDNA library was prepared from seizure stimulated adult rat hippocampus and cloned into the yeast expression vector pPC86. The library contains 6×10⁶ independent cDNAs and a total of 1.5×10⁶ were screened. Interacting proteins were identified by colony selection on plates lacking leucine, tryptophan, and histidine and confirmed using a β-galactosidase assay (Ausubel, et al., 1992). […]

[5] = target: T2, myc-tagged mGluR5 C-terminus (195 aa) expressed in HEK-293 cells (UniProt P31424 1009-1203); test: GST-Homer deletion constructs, pull-down of myc-tagged mGluR5 C-terminus, immunoblot for myc
T2 construct: it is put first here; not shown: myc tag
T2 sequence (P31424 1009-1203 limits assumed): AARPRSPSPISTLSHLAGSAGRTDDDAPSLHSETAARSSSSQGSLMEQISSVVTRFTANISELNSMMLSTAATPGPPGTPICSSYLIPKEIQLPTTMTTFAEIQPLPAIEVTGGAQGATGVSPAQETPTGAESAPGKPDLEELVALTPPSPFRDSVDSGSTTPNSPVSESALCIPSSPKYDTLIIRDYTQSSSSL

mGluR2 transiently expressed in HEK-293 cells, sequence (P31421 19-872 limits assumed): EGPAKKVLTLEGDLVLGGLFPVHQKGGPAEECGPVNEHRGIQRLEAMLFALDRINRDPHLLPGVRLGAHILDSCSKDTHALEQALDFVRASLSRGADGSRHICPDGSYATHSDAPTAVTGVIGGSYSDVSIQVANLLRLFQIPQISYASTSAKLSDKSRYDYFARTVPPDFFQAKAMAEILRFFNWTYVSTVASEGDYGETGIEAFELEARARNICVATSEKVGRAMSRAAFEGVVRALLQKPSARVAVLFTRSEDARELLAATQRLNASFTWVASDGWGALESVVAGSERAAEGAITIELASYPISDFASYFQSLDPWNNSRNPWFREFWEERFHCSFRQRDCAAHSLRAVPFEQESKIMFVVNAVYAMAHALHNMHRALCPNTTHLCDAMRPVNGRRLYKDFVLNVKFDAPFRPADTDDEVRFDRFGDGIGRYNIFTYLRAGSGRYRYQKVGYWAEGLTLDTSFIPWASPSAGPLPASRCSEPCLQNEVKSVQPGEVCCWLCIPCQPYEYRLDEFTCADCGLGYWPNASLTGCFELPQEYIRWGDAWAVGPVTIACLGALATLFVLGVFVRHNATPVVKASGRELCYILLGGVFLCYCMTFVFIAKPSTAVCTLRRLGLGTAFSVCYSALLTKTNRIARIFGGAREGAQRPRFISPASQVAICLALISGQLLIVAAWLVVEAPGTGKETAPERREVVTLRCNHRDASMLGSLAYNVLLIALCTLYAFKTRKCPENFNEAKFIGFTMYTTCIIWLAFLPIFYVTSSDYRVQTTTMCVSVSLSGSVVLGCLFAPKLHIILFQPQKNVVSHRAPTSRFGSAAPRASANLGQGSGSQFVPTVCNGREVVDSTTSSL
mGluR4 transiently expressed in HEK-293 cells, sequence (P31423 33-912 limits assumed): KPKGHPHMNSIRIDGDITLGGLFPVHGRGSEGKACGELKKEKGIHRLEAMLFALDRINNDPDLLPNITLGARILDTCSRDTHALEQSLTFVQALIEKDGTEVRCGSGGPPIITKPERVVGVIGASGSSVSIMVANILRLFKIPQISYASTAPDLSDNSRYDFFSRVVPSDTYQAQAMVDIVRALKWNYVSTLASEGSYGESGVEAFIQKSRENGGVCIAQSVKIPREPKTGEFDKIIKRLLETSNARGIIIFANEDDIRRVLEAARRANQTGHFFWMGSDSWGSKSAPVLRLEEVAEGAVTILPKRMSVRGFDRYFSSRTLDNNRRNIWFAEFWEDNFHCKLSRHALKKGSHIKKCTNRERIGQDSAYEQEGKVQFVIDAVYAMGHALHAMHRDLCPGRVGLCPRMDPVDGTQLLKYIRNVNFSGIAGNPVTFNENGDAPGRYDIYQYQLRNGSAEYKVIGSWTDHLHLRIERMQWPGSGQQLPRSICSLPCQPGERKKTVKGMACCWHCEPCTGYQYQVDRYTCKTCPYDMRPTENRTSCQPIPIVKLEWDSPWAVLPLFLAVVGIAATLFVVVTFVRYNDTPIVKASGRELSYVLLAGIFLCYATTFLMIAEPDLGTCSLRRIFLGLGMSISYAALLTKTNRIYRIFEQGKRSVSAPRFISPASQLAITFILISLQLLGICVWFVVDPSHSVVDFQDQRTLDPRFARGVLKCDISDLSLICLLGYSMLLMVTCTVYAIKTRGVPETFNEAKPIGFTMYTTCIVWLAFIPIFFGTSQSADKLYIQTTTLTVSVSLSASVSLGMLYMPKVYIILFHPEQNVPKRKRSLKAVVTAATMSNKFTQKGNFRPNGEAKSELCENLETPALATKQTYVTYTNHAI
T1 sequence (P31424 1009-1203): as the sequence (P31424 1009-1203 limits assumed) above

B1: GST-Homer fusion protein (full length rat Homer, 1-186, fused to glutathione-S-transferase) (other)
chain: MGEQPIFSTRAHVFQIDPNTKKNWVPTSKHAVTVSYFYDSTRNVYRIISLDGSKAIINSTITPNMTFTKTSQKFGQWADSRANTVYGLGFSSEHHLSKFAEKFQEFKEAARLAKEKSQEKMELTSTPSQESAGGDLQSPLTPESINGTDDERTPDVTQNSEPRAEPAQNALPFSHRYTFNSAIMIK
notes: Bacterially expressed from pGEX; GST is put first as usual for pGEX; also called Homer GST fusion protein; Homer-GST fusion protein; not shown: glutathione-S-transferase (GST) encoded by the bacterial vector pGEX (Pharmacia)
binding result [1]: no binding
binding result [2]: no binding
reduction of binding against full length mGluR5 [3]: > 70%

B2: full-length Homer ORF in yeast expression vector pPC97 (GAL4 two-hybrid fusion) (other)
chain: B1 chain
notes: also called Homer (two-hybrid bait); not shown: GAL4 domain supplied by vector pPC97
binding result [4]: binds

B3: GST-Homer deletion construct, Homer fragment 109-186 (N-terminal 108 amino acids deleted) (other, not shown: a dimerising Fc or GST; large carriers; small tags and cut ends)
chain: AARLAKEKSQEKMELTSTPSQESAGGDLQSPLTPESINGTDDERTPDVTQNSEPRAEPAQNALPFSHRYTFNSAIMIK
notes: GST put first as usual for pGEX
binding result [5]: no binding
